Test results taken from publication doi:10.1101/2023.01.23.525191, “Mechanism of an alternative splicing switch mediated by cell-specific and general splicing regulators” (bioRxiv, 2023).

Columns and labels:
[1] = target: the molecule itself; assay: AUC; sedimentation velocity, 500 mM KCl, 20 mM HEPES, 1 mM TCEP, pH 7.9, 20 °C; FL 0.46 and ΔC20 0.57 mg/ml as printed; dimers and higher-order oligomers
[2] = target: the molecule itself; assay: SEC; size exclusion chromatography of recombinant untagged protein; dimer and higher-order assemblies

B1: recombinant untagged full length rat RBPMS-A (natural protein)
chain: not shown
notes: RBPMS isoform A (RBPMS-A), rat, cDNA NCBI XM_006253240.2, full length open reading frame; it may be the rat protein; Exists as a mixture of dimers and higher-order oligomers; also called FL RBPMS; FL; source: E. coli BL21 (DE3), purified (Histrap, TEV cleavage, mono Q, Superdex 200); not shown: His6, N-terminal, cleaved
stoichiometry N [1]: ~21 | stoichiometry N [2]: 2
